Test results published in PMC5385343, “Crystal Structure of Glyceraldehyde-3-Phosphate Dehydrogenase from the Gram-Positive Bacterial Pathogen A. vaginae, an Immunoevasive Factor that Interacts with the Human C5a Anaphylatoxin” (Frontiers in Microbiology, 2017).

Experiments:
AvGAPDH = target: T1, AvGAPDH (Fannyhessea vaginae, UniProt F1T6A5); assay: X-ray crystal structure, […] Å; assay type: binding; conditions: crystallised with 0.6 mM NAD+, 0.1 M sodium citrate pH 5.5, 20% PEG 3000; one NAD+ per protomer, active site
T1 construct: gene gap; full-length, 356 residues, N-terminal His6 tag and TEV site (tag removal not described), pET21b, E. coli Rosetta(DE3)pLysS; homotetramer

O=CC(O)COP(=O)(O)O = assay: purified protein; conditions: 40 mM Tris-HCl pH 8.5, 2 mM EDTA, 25 °C, 0.1 μM enzyme, G3P varied 0.6-15 mM, co-substrates NAD+ and Pi, fixed concentrations not given
[1] = system: NC(=O)c1ccc[n+]([C@@H]2O[C@H](COP(=O)(O)OP(=O)(O)OC[C@H]3O[C@@H](n4cnc5c(N)ncnc54)[C@H](O)[C@@H]3O)[C@@H](O)[C@H]2O)c1; assay: purified protein; conditions: 40 mM Tris-HCl pH 8.5, 2 mM EDTA, 25 °C, 0.1 μM enzyme, NAD+ varied 0.03-2 mM, co-substrates G3P and Pi, fixed concentrations not given, varied: cofactor
crystal structure = target: the molecule itself; assay: crystal structure

`NC(=O)c1ccc[n+]([C@@H]2O[C@H](COP(=O)(O)OP(=O)(O)OC[C@H]3O[C@@H](n4cnc5c(N)ncnc54)[C@H](O)[C@@H]3O)[C@@H](O)[C@H]2O)c1` [NAD^+] was tested, and the “X-ray crystal structure, 2.19 Å” value (AvGAPDH) was “NAD^+ molecules are tightly bound in an elongated cleft in all four protomers”.

With AvGAPDH (Fannyhessea vaginae DSM 15829) the Km (O=CC(O)COP(=O)(O)O) was 2600 ± 500 µM, the Vmax (O=CC(O)COP(=O)(O)O) was 342000 µM/min/mg and the kcat (O=CC(O)COP(=O)(O)O) was 57 ± 6 s⁻¹. The kcat/Km (O=CC(O)COP(=O)(O)O) was 22000 ± 5000 M⁻¹ s⁻¹, the Km [1] was 80 ± 30 µM and the Vmax [1] was 186000 µM/min/mg. It also gave a kcat [1] of 31 ± 3 s⁻¹ and a kcat/Km [1] of 384000 ± 150000 M⁻¹ s⁻¹.

B1: D-glyceraldehyde-3-phosphate dehydrogenase from Atopobium vaginae, full-length, hexahistidine-tagged (enzyme)
chain: MKEDRLPANLAKGESMAVKVAINGFGRIGRLAFRQMFGHEGSEIVAINDLTDPKMLANLLKYDSSQGNYARNHSVVAGEDSITVDGKTIKIYKEADAHNLPWGELNVDVVLECTGFYTSKAKAQAHIDAGAKKVVISAPAGKDLPTIVYNVNHEILTKDDNIISAASCTTNCLAPMAKALNDFAPIQSGIMSTIHAFTGDQMVLDGPHRKGDLRRARAAAINIVPNSTGAAKAIGLVIPELNGKLIGSAQRVPVPTGSTTLLFAVVKSDKEITVDSINAAMKAASDPETFGYNEDPIVSSDIIGMTYGSLFDATQTMVQDLGNGLYQVEVVSWYDNENSYTSQMVRTIKYFEKFVA
notes: also called AvGAPDH; GAPDH from A. vaginae; source: E. coli Rossetta(DE3)pLysS, purified (HisTrap, Superdex 200)
B1 was tested, and the “stoichiometry N” value (crystal structure) was 4.
